Seven molecules from patent US20090280056A1 (Genentech, published 2009) can be followed below.

For assay [1], the target named is T1, human STEAP-1 (human, UniProt Q9UHE8 1-339).
T1 construct: also called Six Transmembrane Epithelial Antigen of the Prostate
Description: Scatchard analysis on LNCaP-BR cells (endogenous STEAP-1).

Assay [2] has as its target T1, human STEAP-1. Description: Scatchard analysis on PC3-PS5.4 cells (exogenous STEAP-1).
For assay [3], the target named is T2, cynomolgus monkey STEAP-1 (cynomolgus monkey, UniProt Q9UHE8 1-339 (human entry)).
T2 construct: The cells carrying cyno STEAP-1 are not described; also called cyno STEAP-1
Description: FACS on cells expressing cynomolgus STEAP-1 (panel title CYNO, cell line not named), PE detection.

The target of assay [4] is T1, human STEAP-1. Description: Scatchard analysis on 293.LB50 cells (exogenous STEAP-1). The text has this:
(§1) IgG Production and Affinity Determination -IgG was purified with Protein G affinity chromatography.
When expressed as an IgG, 120.v24 produced a similar FACS shift to the chimeric 120 antibody at all concentrations tested.

For assay [5], the target named is T3, mouse STEAP-1 (mouse, UniProt Q9CWR7 1-339).
T3 construct: The cells carrying mouse STEAP-1 are not described in the text; also called STEAP-1 from mouse
Description: FACS on cells expressing mouse STEAP-1 (panel title MOUSE, cell line not named), PE detection; key in Figure 7A: 120.

In assay [6] the target is T3, mouse STEAP-1. Description: FACS on cells expressing mouse STEAP-1 (panel title MOUSE, cell line not named), PE detection; key in Figure 7A: 120 chi.
Assay [7] has as its target T1, human STEAP-1. Description: Scatchard analysis; the sentence names no reference (the preceding sentences compare with chimeric 120 IgG).
Text: as §1
Although the 120-graft IgG bound specifically to the STEAP-1 expressing cells, the FACS signal observed for the 120-graft IgG was smaller than that observed for the chimeric 120 IgG indicating a loss in binding affinity. Phage displaying the 120-graft Fab also generated a FACS signal that was only observed on STEAP-1 expressing cells. This shift was less than that observed for the chimeric 120 IgG.

The target in assay [8] is T1, human STEAP-1. Description: Scatchard analysis on 293 STEAP-1 NT LB50 cells.
Assay [9] concerns the target T1, human STEAP-1. Description: Scatchard analysis on LNCaP.BR cells (endogenous STEAP-1), Assay 734; displacement plot 25G and Scatchard plot 25H. The text has this: (§2) JgG was purified with Protein G affinity chromatography.
In assay [10] the target is T1, human STEAP-1. Description: Scatchard analysis on 293.LB50 cells (exogenous STEAP-1), Assay 736; displacement plot 26G and Scatchard plot 26H.
Text: as §2

Assay [11] concerns the target T1, human STEAP-1. Description: Scatchard analysis on LNCaP.BR cells (endogenous STEAP-1), Assay 733; displacement plot 25E and Scatchard plot 25F.
Text: as §2

Assay [12] concerns the target T1, human STEAP-1. Description: Scatchard analysis on 293-LB50 cells (exogenous STEAP-1), average.
Text: as §2

In assay [13] the target is T1, human STEAP-1. Description: Scatchard analysis on LNCaP-BR cells (endogenous STEAP-1), average.
Text: as §2

Assay [14] has as its target T1, human STEAP-1. Description: Scatchard analysis on 293.LB50 cells (exogenous STEAP-1), Assay 735; displacement plot 26E and Scatchard plot 26F.
Text: as §2

In assay [15] the target is T1, human STEAP-1. Description: Scatchard analysis on 293-LB50 and LNCaP.BR cells.
Text: as §2

For assay [16], the target named is T3, mouse STEAP-1. Description: FACS on cells expressing mouse STEAP-1 (panel title MOUSE, cell line not named), PE detection; key in Figure 7A: hu 24-67.
Assay [17] has as its target T1, human STEAP-1. Description: Scatchard analysis on 293.LB50 cells (exogenous STEAP-1), Assay 737; displacement plot 26A and Scatchard plot 26B.
Text: as §2

The target of assay [18] is T1, human STEAP-1. Description: Scatchard analysis on LNCaP.BR cells (endogenous STEAP-1), Assay 739; displacement plot 25A and Scatchard plot 25B.
Text: as §2

Assay [19] has as its target T2, cynomolgus monkey STEAP-1. Description: Scatchard analysis on 293 cells transiently expressing cyno Steap1; side note: Same Affinity for human & cyno.
Assay [20] has as its target T1, human STEAP-1. Description: Scatchard analysis on 293 cells transiently expressing human Steap1.
Text: as §2

Assay [21] deals with T1, human STEAP-1. Description: Scatchard analysis on LNCaP.BR cells (endogenous STEAP-1), Assay 740; displacement plot 25C and Scatchard plot 25D.
Text: as §2

For assay [22], the target named is T1, human STEAP-1. Description: Scatchard analysis on 293.LB50 cells (exogenous STEAP-1), Assay 738; displacement plot 26C and Scatchard plot 26D.
Text: as §2

T2 sequence (Q9UHE8 other isoform, or with tags, fused parts or gaps): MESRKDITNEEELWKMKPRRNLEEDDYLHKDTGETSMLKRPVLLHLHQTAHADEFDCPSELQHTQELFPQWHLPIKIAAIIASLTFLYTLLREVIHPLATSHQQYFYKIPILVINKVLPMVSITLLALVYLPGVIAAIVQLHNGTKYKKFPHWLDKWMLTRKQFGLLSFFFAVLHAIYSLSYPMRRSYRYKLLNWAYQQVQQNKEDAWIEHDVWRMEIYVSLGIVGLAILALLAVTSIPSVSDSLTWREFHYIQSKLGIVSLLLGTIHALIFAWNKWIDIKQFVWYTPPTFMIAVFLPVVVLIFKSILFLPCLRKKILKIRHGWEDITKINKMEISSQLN
T3 sequence (Q9CWR7 other isoform, or with tags, fused parts or gaps): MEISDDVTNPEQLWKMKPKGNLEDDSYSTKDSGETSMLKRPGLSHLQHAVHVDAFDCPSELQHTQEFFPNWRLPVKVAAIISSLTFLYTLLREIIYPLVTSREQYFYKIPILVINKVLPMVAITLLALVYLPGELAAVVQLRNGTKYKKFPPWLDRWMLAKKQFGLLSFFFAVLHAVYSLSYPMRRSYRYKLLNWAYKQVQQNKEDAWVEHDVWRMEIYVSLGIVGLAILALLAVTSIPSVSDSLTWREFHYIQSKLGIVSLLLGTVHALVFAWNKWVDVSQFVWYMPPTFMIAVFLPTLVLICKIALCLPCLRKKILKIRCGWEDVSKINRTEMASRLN
T1 sequence (Q9UHE8 other isoform, or with tags, fused parts or gaps): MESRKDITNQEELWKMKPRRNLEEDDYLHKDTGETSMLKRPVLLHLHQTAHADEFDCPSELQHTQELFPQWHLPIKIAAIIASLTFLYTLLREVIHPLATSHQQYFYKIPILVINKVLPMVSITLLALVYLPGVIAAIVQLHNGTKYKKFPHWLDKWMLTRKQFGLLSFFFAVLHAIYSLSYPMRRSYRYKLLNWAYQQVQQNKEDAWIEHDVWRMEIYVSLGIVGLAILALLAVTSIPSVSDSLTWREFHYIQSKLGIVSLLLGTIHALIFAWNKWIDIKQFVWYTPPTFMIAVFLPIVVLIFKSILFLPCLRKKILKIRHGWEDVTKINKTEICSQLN

B1: murine anti-STEAP-1 MAb 120.545 (antibody, V domains shown)
VH: DVQVQESGPGLVKPSQSLSLTCTVTGYSITSDYAWNWIRQFPGNKLEWMGYISNSGSTSYNPSLKSRISITRDTSKNQFFLQLISVTTEDTATYYCARERNYDYDDYYYAMDYWGQGTTLTVSA
VL: DIVMSQSPSSLAVSVGEKVTMSCKSSQSLLYRSNQKNYLAWYQQKPGQSPKLLIYWASTRESGVPDRFTGSGSGTDFTLTISSVKAEDLAVYYCQQYYNYPRTFGGGTKVEIK
notes: also called murine 120
As usually defined, the Kd is the constant that tells how readily two partners part at equilibrium. Turning to B1, the figures for the Kd with human STEAP-1 [1], in the assay with human STEAP-1 [2] and with human STEAP-1 [4] were 1.5 nM, 17.5 nM and 4.7 nM, respectively. The binding result in [3] was “binds”; in the assay with mouse STEAP-1 [5], “no binding”. The molecule further yielded a sites per cell with human STEAP-1 [4] of 301000 sites per cell.

B2: 120 chimera (antibody, V domains shown)
VH: DVQVQESGPGLVKPSQSLSLTCTVTGYSITSDYAWNWIRQFPGNKLEWMGYISNSGSTSYNPSLKSRISITRDTSKNQFFLQLISVTTEDTATYYCARERNYDYDDYYYAMDYWGQGTTLTVSA
VL: DIVMSQSPSSLAVSVGEKVTMSCKSSQSLLYRSNQKNYLAWYQQKPGQSPKLLIYWASTRESGVPDRFTGSGSGTDFTLTISSVKAEDLAVYYCQQYYNYPRTFGGGTKVEIK
notes: If that entry holds a murine constant part, only its variable part applies here; also called chimera 120; chimeric 120 IgG
On to B2, for which the Kd was found to be 0.9 nM with human STEAP-1 [1], 9.9 nM with human STEAP-1 [2] and 4.9 nM with human STEAP-1 [4]. Moreover, the binding result in [3] is listed as “binds”; with mouse STEAP-1 [6], “no binding”. This molecule also had a sites per cell with human STEAP-1 [4] of 253000 sites per cell.

B3: 120 graft IgG (antibody, V domains shown)
VH: EVQLVESGGGLVQPGGSLRLSCAASGYSITSDYAWNWVRQAPGKGLEWVGYISNSGSTSYNPSLKSRFTISRDNSKNTLYLQMNSLRAEDTAVYYCARERNYDYDDYYYAMDYWGQGTLVTVSS
VL: DIQMTQSPSSLSASVGDRVTITCKSSQSLLYRSNQKNYLAWYQQKPGKAPKLLIYWASTRESGVPSRFSGSGSGTDFTLTISSLQPEDFATYYCQQYYNYPRTFGQGTKVEIKR
notes: Direct CDR graft of murine 120 onto the human kappa I / VH subgroup III consensus, expressed as IgG; also called graft 120
On to B3, for which the “fold loss in binding affinity” value with human STEAP-1 [7] is around 50 fold. Besides, in the assay with human STEAP-1 [8], the Kd amounted to 260 nM.

B4: anti-STEAP-1 antibody SGIV (antibody, name in Kabat numbering, V domains shown)
VH: EVQLVESGGGLVQPGGSLRLSCAVSGYSITSDYAWNWVRQAPGKGLEWVGYISNSGSTSYNPSLKSRFTISRDNSKNTLYLQMNSLRAEDTAVYYCARERNYDYDDYYYAMDYWGQGTLVTVSS
VL: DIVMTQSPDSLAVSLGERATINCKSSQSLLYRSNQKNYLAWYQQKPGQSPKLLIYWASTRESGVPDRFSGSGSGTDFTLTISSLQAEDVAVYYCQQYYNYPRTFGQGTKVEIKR
notes: Described as a revised light chain variant of the 120.v24 antibody, expressed as IgG; also called Simmons IV; SGIV variant
As to B4, the dissociation constant (Kd) in the assay with human STEAP-1 [9] came to 1.9 nM; in the assay with human STEAP-1 [10], 2.8 nM; in the assay with human STEAP-1 [11], 2.3 nM; with human STEAP-1 [12], 2.8 nM; in the assay with human STEAP-1 [13] it was 2.1 nM; with human STEAP-1 [14], 2.7 nM.

B5: humanized anti-STEAP-1 120v.24 (IgG) (antibody, name in Kabat numbering, V domains shown)
VH: EVQLVESGGGLVQPGGSLRLSCAVSGYSITSDYAWNWVRQAPGKGLEWVGYISNSGSTSYNPSLKSRFTISRDNSKNTLYLQMNSLRAEDTAVYYCARERNYDYDDYYYAMDYWGQGTLVTVSS
VL: DIQMTQSPSSLSASVGDRVTITCKSSQSLLYRSNQKNYLAWYQQKPGKAPKLLIYWASTRESGVPSRFSGSGSGTDFTLTISSLQPEDFATYYCQQYYNYPRTFGQGTKVEIKR
notes: also called humanized 120.v24; humanized version 24
As for B5, in assay [3], the binding result is on record as “binds”. In the assay with human STEAP-1 [4], this molecule returned a Kd of 2.2 nM and a sites per cell of 264000 sites per cell. Further, in the assay with human STEAP-1 [8], the “fold improvement in Kd over the 120 chimera and the original murine M2-120.545” value was 2 fold. Also, the “fold binding affinity relative to the SGIV variant” value in the assay with human STEAP-1 [15] is around 1.5 fold. The binding result with mouse STEAP-1 [16] is “no binding”.

B6: Original Thio 120V24 (antibody, V domains shown)
VH: EVQLVESGGGLVQPGGSLRLSCAVSGYSITSDYAWNWVRQAPGKGLEWVGYISNSGSTSYNPSLKSRFTISRDNSKNTLYLQMNSLRAEDTAVYYCARERNYDYDDYYYAMDYWGQGTLVTVSS
VL: DIQMTQSPSSLSASVGDRVTITCKSSQSLLYRSNQKNYLAWYQQKPGKAPKLLIYWASTRESGVPSRFSGSGSGTDFTLTISSLQPEDFATYYCQQYYNYPRTFGQGTKVEIK
modifications: One engineered free cysteine per chain pair, taken to lie in a constant region and so not in these letters. paragraph 175 calls the antibody a thio-LC variant (V205C Kabat). The site for lot PUR 12813 is not stated at the results.
notes: also called orig thio (PUR 12813); Thio Mab
Turning to B6, the Kd with human STEAP-1 [17] is 1.7 nM; with human STEAP-1 [18], 1.1 nM; in assay [19], 1.1 nM; with human STEAP-1 [12], 1.9 nM; with human STEAP-1 [20], 1.4 nM; in the assay with human STEAP-1 [21] it was 1.7 nM. Moreover, the Kd came out at 1.4 nM with human STEAP-1 [13] and 2 nM in the assay with human STEAP-1 [22].

B7: 120v.78 (antibody, name in Kabat numbering, V domains shown)
VH: EVQLVESGGGLVQPGGSLRLSCAASGYSITSDYAWNWVRQAPGKGLEWVGYISNSGSTSYNPSLKSRFTISRDNSKNTFYLQMNSLRAEDTAVYYCARERNYDYDDYYYAMDYWGQGTLVTVSS
VL: DIQMTQSPSSLSASVGDRVTITCKSSQSLLYRSNQKNYLAWYQQKPGKAPKLLIYWASTRESGVPSRFSGSGSGTDFTLTISSLQPEDFATYYCQQYYNYPRTFGQGTKVEIKR
In turn, B7 showed a Kd with human STEAP-1 [8] of 36 nM.
